Measurements from the Immune Epitope Database (IEDB).

Assays:
Experiment in all cases: IEDB peptide-MHC binding, purified MHC/competitive/radioactivity; filed as Kd, often an IC50 or EC50 that approximates it; ≥ and ≤ were set here for values at or beyond the usual limits of such assays
[1] = biological target: HLA-A*02:02
[2] = biological target: HLA-A*02:03
[3] = biological target: HLA-A*02:06
[4] = biological target: HLA-A*03:01
[5] = biological target: HLA-A*11:01
[6] = biological target: HLA-A*31:01
[7] = biological target: HLA-A*33:01
[8] = biological target: HLA-A*68:01
[9] = source organism: Vaccinia virus WR
[10] = source organism: SARS coronavirus Tor2
[11] = source organism: Mammarenavirus machupoense
[12] = source organism: Mammarenavirus brazilense
[13] = source organism: Lymphocytic choriomeningitis virus (strain Armstrong)

| Sequence | Kd [1, 9] [nM] | Kd [2, 9] [nM] | Kd [3, 9] [nM] | other results |
| --- | --- | --- | --- | --- |
| AIFNNRNLA | 272 | 98.1 | 7.07 | – |
| AIFNNRNLAA | 450 | 103 | 774 | – |
| AISAVYFKA | 3.65 | 525 | 149 | – |
| ALLADKFPV | – | – | – | Kd [1, 10]: 29.1 nM; Kd [2, 10]: 604 nM; Kd [3, 10]: 22.8 nM |
| ALVFLILCFT | – | – | – | Kd [1, 10]: 209 nM; Kd [2, 10]: 1120 nM; Kd [3, 10]: 229 nM |
| AVIPFDDIV | 313 | 241 | 42.4 | – |
| AVSVYGAIT | 11400 | 9610 | 14300 | – |
| DINVIGLIVI | 7150 | 2810 | 2790 | – |
| DLTALLSCI | 5200 | 996 | 4880 | – |
| DMLLNVQTLI | 41.6 | 161 | 291 | – |
| DVIKSISSI | ≥ 63800 | 7520 | 15000 | – |
| EIRGVLPEET | 9600 | 4870 | ≥ 20100 | – |
| ETLPELNLSL | 52.3 | 130 | 134 | – |
| EVERLMELPV | 2460 | 1430 | 3630 | – |
| FIISTLNKIL | 5080 | 1.8 | 8.1 | – |
| FISSFLLPLT | 38.6 | 44.2 | 50.6 | – |
| FITVLTSVDI | 1420 | 237 | 1270 | – |
| FLLPSLATV | – | – | – | Kd [1, 10]: 0.134 nM; Kd [2, 10]: 0.204 nM; Kd [3, 10]: 0.411 nM |
| FQESFYEDIA | 2560 | 555 | 303 | – |
| FTDCRTIDA | 10900 | 2680 | 2710 | – |
| FVDEFYAYL | – | – | – | Kd [1, 10]: 0.0886 nM; Kd [2, 10]: 2.62 nM; Kd [3, 10]: 0.36 nM |
| FVFNGTSWFI | – | – | – | Kd [1, 10]: 1.01 nM; Kd [2, 10]: 2.15 nM; Kd [3, 10]: 0.439 nM |
| GLSQFTHTV | – | – | – | Kd [1, 11]: 5.28 nM; Kd [2, 11]: 7.65 nM; Kd [3, 11]: 332 nM |
| GLTTHCTKL | 100 | 30 | ≥ 31600 | – |
| HQIFGTAYGV | – | – | – | Kd ([3]; source organism: Dengue virus 1 Nauru/West Pac/1974): 20.6 nM |
| HTNHSDISM | 8810 | 4140 | 1200 | – |

| Sequence | Kd [1, 9] [nM] | Kd [2, 9] [nM] | Kd [3, 9] [nM] | other results |
| --- | --- | --- | --- | --- |
| IASAPQQLCT | ≥ 53200 | ≥ 70400 | 8320 | – |
| IIFWFSLEI | – | – | – | Kd [1, 10]: 1.75 nM; Kd [2, 10]: 87 nM; Kd [3, 10]: 4.64 nM |
| IIMAINVFT | 39.3 | 180 | 10.3 | – |
| IIYSKAGNI | 9760 | 12.6 | 13700 | – |
| ILEYLYIMRV | 73.5 | 83.2 | 134 | – |
| ILSEKRKDTI | ≥ 44000 | 541 | ≥ 69800 | – |
| IMECSRMLDT | 5240 | 7200 | ≥ 69800 | – |
| IVAIDLDPV | – | – | – | Kd ([3]; source organism: Dengue virus 1 Brazil/97-11/1997): 11.2 nM |
| IVDSMIIGHI | 507 | 208 | 561 | – |
| IVVALSSLV | 26.7 | 3.85 | 8.23 | – |
| KLIEYSDFA | – | – | – | Kd [1, 10]: 0.0948 nM; Kd [2, 10]: 0.534 nM; Kd [3, 10]: 0.705 nM |
| KQYDSTDFKM | 8.38 | 3270 | 107 | – |
| LLEQLIENI | 702 | 1960 | 539 | – |
| LLPDALLFTL | – | – | – | Kd [1, 12]: 4.72 nM; Kd [2, 12]: 732 nM; Kd [3, 12]: 78.9 nM |
| LNVSYLCHL | – | – | – | Kd [1, 13]: 296 nM; Kd [2, 13]: 7100 nM; Kd [3, 13]: 13600 nM |
| MSPALFFTFL | – | – | – | Kd [1, 12]: 546 nM; Kd [2, 12]: 7630 nM; Kd [3, 12]: 834 nM |
| NITRLEVIGL | 907 | 95.1 | 197 | – |
| NMCNSDVSV | 80 | 30.3 | 97 | – |
| NQILEENVEV | – | – | – | Kd ([3]; source organism: Dengue virus 2 Jamaica/1409/1983): 56.1 nM |
| NTTTFITVLT | 1960 | 596 | 600 | – |
| NVDIIDLLL | 461 | 4090 | 22.3 | – |
| PMIIGEPIIV | ≥ 70000 | 8840 | ≥ 69800 | – |
| PVETLFGSYI | 13700 | 11800 | ≥ 69800 | – |
| QLLKILDNL | 227 | 319 | 135 | – |
| QLLRLMADK | – | – | – | Kd [4, 9]: 61.9 nM; Kd [5, 9]: 349 nM; Kd [6, 9]: 2570 nM; Kd [7, 9]: ≥ 46200 nM; Kd [8, 9]: ≥ 21900 nM |
| QQWIQFMMSR | – | – | – | Kd [4, 10]: 12500 nM; Kd [5, 10]: 7800 nM; Kd [6, 10]: 127 nM; Kd [7, 10]: 1450 nM; Kd [8, 10]: 6640 nM |
